Measurements taken from patent publication US20190144550A1.

Columns and labels:
[1] = biological target: wild-type EGFR expressed on cells (human), P00533; assay: flow cytometry, A431 cells; conditions: remark: other sources report otherwise
[2] = biological target: wild-type EGFR expressed on cells (human), P00533; assay: flow cytometry, F98-EGFRwt cells; conditions: remark: other sources report otherwise

Binder | MFI [1] | % positive [2] [%] | MFI [2] | % positive [1] [%]
11B11 (antibody, V domains shown) VH: QVTLKESGPVLVKPTETLTLTCTVSGFSLSNAKMGVSWIRQPPGKALEWLAHIFSTDEKSIRRSLRSRLTMSKDTSKSQVVLTMTNMDPVDTATYYCVRDSSNYEGYFDYWGQGTLVTVSS VL: EVLMTQSPATLSVSPGERATLSCRASQSVSTNFAWYQQRPGQAPRLLLFGASTRATGIPGRFSGSGSGTENILTISSLQSEDFAIYFCQQYKDWPFTFGPGSKVEIK | 589 | 1.7 | 187 | –
12B2 (antibody, V domains shown) VH: QVTLKESGPVLVKPTETLTLTCTVSGFSLSNPRMGVSWIRQPPGKALEWLGHIFSSDEKSYRLSLRSRLSISKDTSKSQVVLTMTNMDPVDTATYYCVRDSSNYGGYFDYWGQGTLVTVSS VL: EVVMTQSPATLSVSPGERATLSCRASQSVINNLAWYQQKPGQAPRLLIYGTSTRATDIPARFSGSGSGTEFTLTISSLQSEDFAVYYCQDYNNWPFTFGPGTKVDIK | 571 | 1.5 | 185 | 0.8
20E12 (antibody, V domains shown) VH: EVNLVESGGGLVKPGGSLRLSCEASGFTFSYAWMSWVRQAPGKGLEWVGRIKSIADGGATDYAAPVRNRFTISRDDSRNTLYLEMHSLKTEDTAVYYCTTIPGNDAFDMWGQGTMVTVSS VL: DIVLTQSPLSLSVTPGEPASISCRSSQSLLYSNGKNYLDWFLHKPGQSPQLLIYLGSNRASGVPDRFSGSGSGIDFILKISRVEAEDVGVYYCMQAQQTPITFGQGTRLEIK | 302 | 3.4 | 348 | 2.6
20B9 (antibody, V domains shown) VH: QVTLKESGPVLVKPTETLTLTCTVSGFSLSNARMGVSWIRQPPGKALEWLGHIFSTDEKSYSTSLRGRITISKDTSRGLVVLTLTNMDPVDTATYYCARDSSNYEGYFDFWGPGFLVTVSS VL: EIVMTQSPATLSVSPGERATLSCRVSQSIGANLAWYQQKFGQAPRLLIYGASTRATGIPVRFSGGGSGTEFTLTISSLQSEDFAIYSCQQYIYWPFTFGPGTTVDIK | 558 | 1.8 | 189 | –
12H6 (antibody, V domains shown) VH: QVTLKESGPVLVKPTETLTLTCTVSGFSLSNARMGVSWIRQPPGKALEWLAHIFSTDEKSIRRSLRSRLTLSKDTSKSQVVLTMTNMDPVDTATYYCARDSSNYEGYFDYWGQGTLVTVSS VL: EVVMTQSPATLSVSPGERATLSCRASQGVSSNFAWYQQRPGQSPRLLLYGASTRATGVPGRFSGSGSGTENILTISSLQSEDFAIYFCQQYKDWPFTFGPGSKVDIK | 569 | 1.9 | 188 | 0.8
14C11 (antibody, V domains shown) VH: QVTLKESGPVLVKPTETLTLTCTVSGFSLNNARMGVSWIRQPPGKALEWFAHIFSTDEKSFRTSLRSRLTLSKDTSKSQVVLTMTNMDPVDTATYYCARDSSNYEGYFDYWGQGILVTVSS VL: EIVMTQSPATLSVSPGERATLSCRASQSVSNNLAWYQQKPGQAPRLLIYGASTRATGVPARFSGSDSGTEFSLTISSLQSEDFAVYFCQQYKDWPFTFGPGTKVEIK | 580 | 1.3 | 185 | 0.8
19A9 (antibody, V domains shown) VH: QVTLEESGPVLVKPTETLTLTCTVSGFSLSNARMGVSWIRQPPGKAPEWFAHIFSTDEKSLRLSLRSRLTLSKDTSKSQVVLTMTNMDPVDTATYYCARDSSNYEGYFDYWGQGTLVTVSS VL: EVVMTQSPATLSVSPGERATLSCRASQSVNRNLAWYQQKPGQAPRLLIFGTSTRATGIPARFSGSGSGTEFTLTIDSLQSEHSGLYYCQQYNDWPFTFGPGTKVDIK | 578 | 1.6 | 168 | –
11F10 (antibody, V domains shown) VH: QVTLKESGPVLVKPIETLTLTCTVCGFSLSNPRMGVSWIRQPPGKALEWLGHIFSSDEKSYRLFLRSRLSISKDTSKSQVVLTMTNMDPVDTATYYCARDSSDYEGYFDYWGQGTLVTVSS VL: EIVMTQSPATLSVSPGERTTLSCRASQSVGSNLAWYQQKPGQAPRLLIYGASTRASGVPARFSGSGSGTEFTLTISSLQSEDFAVYSCQEYNNWPFTFGQGTKVEIK | 582 | 1.6 | 187 | 1.1

Results, then the binder that gave them:

MFI [1] | % positive [2] [%] | MFI [2] | % positive [1] [%] | Binder
555 | 1.3 | 184 | – | 21E11 (antibody, V domains shown) VH: QVTLKESGPVLVKPTETLTLTCTVSGFSLSNVRMGVSWIRQPPGKALEWFAHIFSSDEKSIRRSLRSRLTLSKDTSKSQVVLTMTNMDPVDTATYYCARDSSNYEGYFDFWGQGTLVTVSSN VL: DMVVTQSPATLSVSPGERATLSCRASQSVGSDLAWYQQPPGQSPRLLIYGASTRATGVPARFSGSGSGTDFTLTITSLESEDFAVYYCQQYNDWPFTFGPGTKVDIK
271 | 1.6 | 301 | – | 32G8 (antibody, V domains shown) VH: EVNLVESGGGLVKPGGSLRLSCEASGFTFSYAWMSWVRQAPGKGLEWVGRIKSITDGGVIDYAAPVRNRCTISRDDSRNTLYLEMHSLKTEDTAVYYCTTIPGNDDFDMWGQGRMVTVSS VL: DIVLTQSPLSLSVTPGEPASISCRSSQSLLYSNGKNYLDWFLHKPGQSPQLLIYLGSNRASGVPDRFSGSGSGIDFILKISRVEAEDVGVYYCMQAQQTPITFGQGTRLEIK
531 | 1.3 | 185 | 0.4 | 29D5 (antibody, V domains shown) VH: QVTLKESGPVLVKPTETLTLTCTVSGFSLSNPRMGVSWLRQPPGKALEWFAHIFSTDEKSYSPSLRGRLTVSKDTSKSQVVLTLTNMDPVDTATYYCARDSSNYEGYFDYWGQGTLVTVSS VL: KIVMTQSPATLSVSPGERATLSCRANQIVSSNLAWYQQKPGQAPRLLVFGTSTRATGIPIRFSGSGSGTEFTLTVSSLQSEDFAVYVCQQYNDWPFTFGPGTKVDIK
269 | 1.7 | 280 | 1.3 | 30D8 (antibody, V domains shown) VH: EVQLVESGGGLVKPGGSLRLSCEASGFTFSDAWMSWVRQAPGKGLEWVGRIKSKTDGGTTDYVVPLNGRFIISRDDSRNTLYLQLNNLKTEDTAVYYCTTVPGSYGYWGQGTLVTVSS VL: DIVMTQSPLSLPVTPGEPASISCRSSQSLLHNKRNNYLDWFLQKPGQSPQLLIYLASNRASGVPDRFSGGGSGTDFTLKISRVEAEDVGVYYCMQAQQTPITFGQGTRLEIK
538 | 1.6 | 185 | 0.3 | 42G9 (antibody, V domains shown) VH: QVTLKESGPVLLKPTETLTLTCTVSGFSLSNPRMGVSWIRQPPGKALEWFAHIFSTDEKSLKLSLRSRLTLSKDTSKSQVVLTMTNMAPVDSATYYCARDSSNYEGYFDFWGQGTLVTVSS VL: EVVLTQSPATLSVSPGERATLSCRASQSVRSNLAWYQQKSGQAPRLLIYGSTIRATGVPARFSGSGSGTEFTLTISSLQSEDFAVYYCQQYSDWPFTFGPGTKVDIK
603 | 1.3 | 184 | 1.1 | 21E7 (antibody, V domains shown) VH: QVTLEESGPVLVKPTETLTLTCTVSGFSLSNARMGVSWIRQPPGKAPEWFAHIFSTDEKSLRLSLRSRLTLSKDTSKSQVVLTMTNMDPVDTATYYCARDSSNYEGYFDYWGQGTLVTVSS VL: DVVLTQSPATLSVSPGERATLSCRASQSVNSNLAWYQQNPGQAPRLLIFGSSTRATGIPASFSGSGSGTEFTLTINSLQSEHSAVYYCQQYNDWPFTFGPGTKVDIK
599 | 1.3 | 185 | 0.8 | 49B11 (antibody, V domains shown) VH: QVTLKESGPVLVKPTETLTLTCTVSGFSLSNVRMGVSWIRQPPGKALEWFAHIFSSDEKSIRRSLRSRLTLSKDTSKSQVVLTMTNMDPVDTATYYCARDSSNYEGYFDYWGQGTLVTVSS VL: EMEVTQSPATLSVSPGERATLSCRASQNIGSDLAWYQQQSGQAPRLLISGASTRATGVPTRFSGSGSGTDFTLTITSLQSEDFAVYYCQQYNDWPFTFGPGTKVDIK
560 | 1.6 | 187 | – | 46E10 (antibody, V domains shown) VH: QVTLKESGPVLVKPTETLTLTCTVSGFSLSNARMGVSWIRQPPGKALEWLAHIFSTDEKSIRRSLRSRLTLSKDTSKSQVVLIMTNMDPVDTATYYCARDSSNYEGYFDYWGQGTLVTVSS VL: EVVMTQSPPNLSVSPGERATLSCRASQSVTSNFAWYQQRPGQSPRLLLYGASTRATGVPGRFSGSGSGTENILTISSLQSEDFAVYFCQQYKDWPFTFGPGSKVDIK
531 | – | 185 | – | 32A10 (antibody, V domains shown) VH: QVTLKESGPVLVKPTETLTLTCTVSGFSLSNARMGVSWIRQPPGKALEWLAHIFSTDEKSIRRSLRSRLTLSKDTSKSQVVLTMTNMDPVDTATYFCARDSSNYEGYFDYWGQGTLVTVSS VL: EVVMTQSPATLSVSPGERVTLSCRASQSVSSNFAWYQQRPGQAPRLLLYGATTRATGLPGRFSGSGSGTENILTISSLQSEDFAIYFCQQYKDWPFTFGPGSKVDIK
391 | 12.6 | 1070 | – | 20G5 (antibody, V domains shown) VH: EVQLVESGGDLVKPGGSLRLSCAASGFTFTNAWMSWVRQAPGKGLEWVGRIKSKIDGGTTDYAAPVKGRFIISRDDSKNTLSLQMNSLKTEDTAMYYCTTAPGGPFDYWGQGSLVTVSS VL: DIVLTQSPLSLPVTPGEPASISCRSSQSLLYSDRRNYLDWFLQKPGQSPHLLIYLGSYRASGVPDRFSGSGSGTDFTLKISRVEAEDVGVYYCMQALQIPITFGQGTRLEIK
276 | 2.3 | 298 | 1.7 | 26B9 (antibody, V domains shown) VH: EVQLVESWGVLVKPGGSLRLSCAASGFIFNNAWMSWVRQAPGKGLEWIGRIKSKSDGGTTDYAAPVKDRFTISRDDSKDTLYLQMNGLKTEDTAVYFCTTAPGGPFDYWGQGTLVTVSS VL: DIVLTQSPLSLPVTPGEPASISCRSSQSLLHRDGFNYLDWFLQKPGQSPQLLIYLASSRASGVPDRFSGSDSGTDFTLKISRVEAEDVGVYYCMQALQTPITFGQGTRLEIK
